The labels stand for the following.
T1: EsCas13d, nuclease-dead (Eubacterium siraeum, UniProt B0MS50, R295A;H300A;R849A;H854A)
T1 sequence: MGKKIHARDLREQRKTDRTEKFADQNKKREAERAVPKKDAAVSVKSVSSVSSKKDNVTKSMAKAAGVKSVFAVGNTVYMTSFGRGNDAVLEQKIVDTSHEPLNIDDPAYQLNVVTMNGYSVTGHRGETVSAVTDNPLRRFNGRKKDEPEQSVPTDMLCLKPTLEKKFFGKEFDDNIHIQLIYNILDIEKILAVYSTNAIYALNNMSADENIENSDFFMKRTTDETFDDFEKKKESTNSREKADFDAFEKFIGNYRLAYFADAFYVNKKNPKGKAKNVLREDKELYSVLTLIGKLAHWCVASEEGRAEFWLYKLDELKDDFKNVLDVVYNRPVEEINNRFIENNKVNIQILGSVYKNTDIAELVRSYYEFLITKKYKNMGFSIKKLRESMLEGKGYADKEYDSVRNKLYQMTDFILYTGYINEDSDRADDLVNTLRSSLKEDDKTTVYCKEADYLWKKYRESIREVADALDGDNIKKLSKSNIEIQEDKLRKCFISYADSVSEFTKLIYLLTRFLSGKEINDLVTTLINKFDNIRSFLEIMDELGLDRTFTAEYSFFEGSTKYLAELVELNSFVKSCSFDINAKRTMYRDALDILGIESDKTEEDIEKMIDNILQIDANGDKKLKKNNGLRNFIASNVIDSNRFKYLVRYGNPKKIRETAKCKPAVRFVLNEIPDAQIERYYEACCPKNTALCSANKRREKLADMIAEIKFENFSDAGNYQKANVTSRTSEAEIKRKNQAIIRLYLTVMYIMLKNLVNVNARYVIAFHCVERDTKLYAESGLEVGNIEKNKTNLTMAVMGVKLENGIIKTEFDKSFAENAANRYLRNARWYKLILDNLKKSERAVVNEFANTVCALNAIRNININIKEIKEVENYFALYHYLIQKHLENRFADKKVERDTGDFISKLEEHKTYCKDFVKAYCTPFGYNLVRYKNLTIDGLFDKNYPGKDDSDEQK

B1: target 1 C7U,A18G (mixed)
RNA 1: CACCCGUGCAAAAAUGCAGGGGUCUAAAACUGAGCGGAUAACCUCUCUAUGG
RNA 2: GGGAAUGGAUCCACAUCUACGAAUUCGUACCAUGGAGAGGUUAUUCGCUCACCGAGAUCGGAAGAGCACACGU
B2: target 1 insA 3' of 7,insU 3' of 4 (mixed)
RNA 1: CACCCGUGCAAAAAUGCAGGGGUCUAAAACUGAGCGGAUAACCUCUCUAUGG
RNA 2: GGGAAUGGAUCCACAUCUACGAAUUCGUACCAUAGAGAGGUUAUCACGCUUCACCGAGAUCGGAAGAGCACACGU
B3: target 2 MT 5'PFS GGA 3'PFS UUU (mixed)
RNA 1: CACCCGUGCAAAAUUGCAGGGGUCUAAAACCUUCUCCAAAUUGUUUCAUCCU
RNA 2: GGGAAUGGAUCCACAUCUACGAAUUCGGAAGGAUGAAACAAUUUGGAGAAGUUUAGAUCGGAAGAGCACACGU
B4: target 2 MT 5'PFS CUC 3'PFS AUG (mixed)
RNA 1: CACCCGUGCAAAAUUGCAGGGGUCUAAAACCUUCUCCAAAUUGUUUCAUCCU
RNA 2: GGGAAUGGAUCCACAUCUACGAAUUCCUCAGGAUGAAACAAUUUGGAGAAGAUGAGAUCGGAAGAGCACACGU
B5: target 2 MT 5'PFS CUC 3'PFS AUA (mixed)
RNA 1: CACCCGUGCAAAAUUGCAGGGGUCUAAAACCUUCUCCAAAUUGUUUCAUCCU
RNA 2: GGGAAUGGAUCCACAUCUACGAAUUCCUCAGGAUGAAACAAUUUGGAGAAGAUAAGAUCGGAAGAGCACACGU
B6: target 2 MT 5'PFS GAU 3'PFS AAA (mixed)
RNA 1: CACCCGUGCAAAAUUGCAGGGGUCUAAAACCUUCUCCAAAUUGUUUCAUCCU
RNA 2: GGGAAUGGAUCCACAUCUACGAAUUCGAUAGGAUGAAACAAUUUGGAGAAGAAAAGAUCGGAAGAGCACACGU
B7: target 2 MT 5'PFS UGA 3'PFS CUA (mixed)
RNA 1: CACCCGUGCAAAAUUGCAGGGGUCUAAAACCUUCUCCAAAUUGUUUCAUCCU
RNA 2: GGGAAUGGAUCCACAUCUACGAAUUCUGAAGGAUGAAACAAUUUGGAGAAGCUAAGAUCGGAAGAGCACACGU
B8: target 2 MT 5'PFS GAC 3'PFS AUU (mixed)
RNA 1: CACCCGUGCAAAAUUGCAGGGGUCUAAAACCUUCUCCAAAUUGUUUCAUCCU
RNA 2: GGGAAUGGAUCCACAUCUACGAAUUCGACAGGAUGAAACAAUUUGGAGAAGAUUAGAUCGGAAGAGCACACGU
B9: target 2 MT 5'PFS GAC 3'PFS AUG (mixed)
RNA 1: CACCCGUGCAAAAUUGCAGGGGUCUAAAACCUUCUCCAAAUUGUUUCAUCCU
RNA 2: GGGAAUGGAUCCACAUCUACGAAUUCGACAGGAUGAAACAAUUUGGAGAAGAUGAGAUCGGAAGAGCACACGU
B10: target 2 MT 5'PFS GAU 3'PFS AAG (mixed)
RNA 1: CACCCGUGCAAAAUUGCAGGGGUCUAAAACCUUCUCCAAAUUGUUUCAUCCU
RNA 2: GGGAAUGGAUCCACAUCUACGAAUUCGAUAGGAUGAAACAAUUUGGAGAAGAAGAGAUCGGAAGAGCACACGU
B11: target 2 MT 5'PFS UGC 3'PFS AAG (mixed)
RNA 1: CACCCGUGCAAAAUUGCAGGGGUCUAAAACCUUCUCCAAAUUGUUUCAUCCU
RNA 2: GGGAAUGGAUCCACAUCUACGAAUUCUGCAGGAUGAAACAAUUUGGAGAAGAAGAGAUCGGAAGAGCACACGU
B12: target 2 MT 5'PFS CUC 3'PFS AUU (mixed)
RNA 1: CACCCGUGCAAAAUUGCAGGGGUCUAAAACCUUCUCCAAAUUGUUUCAUCCU
RNA 2: GGGAAUGGAUCCACAUCUACGAAUUCCUCAGGAUGAAACAAUUUGGAGAAGAUUAGAUCGGAAGAGCACACGU
B13: target 2 MT 5'PFS UGG 3'PFS AUG (mixed)
RNA 1: CACCCGUGCAAAAUUGCAGGGGUCUAAAACCUUCUCCAAAUUGUUUCAUCCU
RNA 2: GGGAAUGGAUCCACAUCUACGAAUUCUGGAGGAUGAAACAAUUUGGAGAAGAUGAGAUCGGAAGAGCACACGU
B14: target 2 MT 5'PFS CUC 3'PFS AUC (mixed)
RNA 1: CACCCGUGCAAAAUUGCAGGGGUCUAAAACCUUCUCCAAAUUGUUUCAUCCU
RNA 2: GGGAAUGGAUCCACAUCUACGAAUUCCUCAGGAUGAAACAAUUUGGAGAAGAUCAGAUCGGAAGAGCACACGU
B15: target 2 MT 5'PFS GAC 3'PFS AUC (mixed)
RNA 1: CACCCGUGCAAAAUUGCAGGGGUCUAAAACCUUCUCCAAAUUGUUUCAUCCU
RNA 2: GGGAAUGGAUCCACAUCUACGAAUUCGACAGGAUGAAACAAUUUGGAGAAGAUCAGAUCGGAAGAGCACACGU
B16: target 2 MT 5'PFS GUC 3'PFS AGG (mixed)
RNA 1: CACCCGUGCAAAAUUGCAGGGGUCUAAAACCUUCUCCAAAUUGUUUCAUCCU
RNA 2: GGGAAUGGAUCCACAUCUACGAAUUCGUCAGGAUGAAACAAUUUGGAGAAGAGGAGAUCGGAAGAGCACACGU
B17: target 2 MT 5'PFS UGC 3'PFS AAC (mixed)
RNA 1: CACCCGUGCAAAAUUGCAGGGGUCUAAAACCUUCUCCAAAUUGUUUCAUCCU
RNA 2: GGGAAUGGAUCCACAUCUACGAAUUCUGCAGGAUGAAACAAUUUGGAGAAGAACAGAUCGGAAGAGCACACGU
B18: target 2 MT 5'PFS GAU 3'PFS AAU (mixed)
RNA 1: CACCCGUGCAAAAUUGCAGGGGUCUAAAACCUUCUCCAAAUUGUUUCAUCCU
RNA 2: GGGAAUGGAUCCACAUCUACGAAUUCGAUAGGAUGAAACAAUUUGGAGAAGAAUAGAUCGGAAGAGCACACGU
B19: target 2 MT 5'PFS GUC 3'PFS AGC (mixed)
RNA 1: CACCCGUGCAAAAUUGCAGGGGUCUAAAACCUUCUCCAAAUUGUUUCAUCCU
RNA 2: GGGAAUGGAUCCACAUCUACGAAUUCGUCAGGAUGAAACAAUUUGGAGAAGAGCAGAUCGGAAGAGCACACGU
B20: target 2 MT 5'PFS UGC 3'PFS UCG (mixed)
RNA 1: CACCCGUGCAAAAUUGCAGGGGUCUAAAACCUUCUCCAAAUUGUUUCAUCCU
RNA 2: GGGAAUGGAUCCACAUCUACGAAUUCUGCAGGAUGAAACAAUUUGGAGAAGUCGAGAUCGGAAGAGCACACGU
B21: target 2 MT 5'PFS UGC 3'PFS AAA (mixed)
RNA 1: CACCCGUGCAAAAUUGCAGGGGUCUAAAACCUUCUCCAAAUUGUUUCAUCCU
RNA 2: GGGAAUGGAUCCACAUCUACGAAUUCUGCAGGAUGAAACAAUUUGGAGAAGAAAAGAUCGGAAGAGCACACGU
B22: target 2 MT 5'PFS UGG 3'PFS AUC (mixed)
RNA 1: CACCCGUGCAAAAUUGCAGGGGUCUAAAACCUUCUCCAAAUUGUUUCAUCCU
RNA 2: GGGAAUGGAUCCACAUCUACGAAUUCUGGAGGAUGAAACAAUUUGGAGAAGAUCAGAUCGGAAGAGCACACGU
B23: target 2 MT 5'PFS UGC 3'PFS UCA (mixed)
RNA 1: CACCCGUGCAAAAUUGCAGGGGUCUAAAACCUUCUCCAAAUUGUUUCAUCCU
RNA 2: GGGAAUGGAUCCACAUCUACGAAUUCUGCAGGAUGAAACAAUUUGGAGAAGUCAAGAUCGGAAGAGCACACGU
B24: target 2 MT 5'PFS UGA 3'PFS CUC (mixed)
RNA 1: CACCCGUGCAAAAUUGCAGGGGUCUAAAACCUUCUCCAAAUUGUUUCAUCCU
RNA 2: GGGAAUGGAUCCACAUCUACGAAUUCUGAAGGAUGAAACAAUUUGGAGAAGCUCAGAUCGGAAGAGCACACGU
B25: target 2 MT 5'PFS CCU 3'PFS UAG (mixed)
RNA 1: CACCCGUGCAAAAUUGCAGGGGUCUAAAACCUUCUCCAAAUUGUUUCAUCCU
RNA 2: GGGAAUGGAUCCACAUCUACGAAUUCCCUAGGAUGAAACAAUUUGGAGAAGUAGAGAUCGGAAGAGCACACGU
B26: target 2 MT 5'PFS GUC 3'PFS AGA (mixed)
RNA 1: CACCCGUGCAAAAUUGCAGGGGUCUAAAACCUUCUCCAAAUUGUUUCAUCCU
RNA 2: GGGAAUGGAUCCACAUCUACGAAUUCGUCAGGAUGAAACAAUUUGGAGAAGAGAAGAUCGGAAGAGCACACGU
B27: target 2 MT 5'PFS GAU 3'PFS AAC (mixed)
RNA 1: CACCCGUGCAAAAUUGCAGGGGUCUAAAACCUUCUCCAAAUUGUUUCAUCCU
RNA 2: GGGAAUGGAUCCACAUCUACGAAUUCGAUAGGAUGAAACAAUUUGGAGAAGAACAGAUCGGAAGAGCACACGU

For the series, the target named is T1, EsCas13d, nuclease-dead. Briefly: crRNA (strand 1, pre-loaded); Mg2+; 40 mM Tris-HCl pH 7.5, 150 mM NaCl, 6 mM MgCl2, 1 mM DTT, 0.1% Tween-20, 0.2 mg/ml BSA; 25 C; 10 min per concentration, then washed. Particulars: tags: His6-TwinStrep-SUMO cleaved; N-terminal SNAP kept (SNAP-Surface 488); label: 3' end held by stalled T7 RNA polymerase.
Usually Kd stands for the free concentration of one partner at which half of the binding sites on the other are occupied at equilibrium, for simple one-to-one binding. A higher Kd goes with a looser complex. The molecule B1 showed a Kd of about 70 nM.
In turn, B2 showed a Kd of 6.3 ± 0.5 nM.
With B3, the Kd was 41 ± 9 nM.
With B4 the figure was 1.74 ± 0.26 nM; with B5, 2.11 ± 0.28 nM.
The molecule B6 displayed a Kd of 6.9 ± 1 nM.
For the molecule B7, the affinity, expressed as Kd, was 8.7 ± 1.1 nM.
Turning to B8, the equilibrium dissociation constant (Kd) turned out to be 12.1 ± 2.1 nM. This Kd and that of the molecule before are within 1.5-fold of each other.
B9 showed a Kd of 22 ± 5 nM.
The same measure for B10: 11.8 ± 1.6 nM.
Take B11: the equilibrium dissociation constant (Kd) came to 15 ± 3.3 nM.
With B12 the figure was 2.2 ± 0.4 nM; with B13, 5.2 ± 0.5 nM.
The molecule B14 had a Kd of 1.91 ± 0.31 nM. This Kd lies about 2.7-fold lower than the previous one.
For the molecule B15, the dissociation constant (Kd) stood at 13.5 ± 2.6 nM.
The molecule B16 gave a dissociation constant Kd of 15.3 ± 2.1 nM.
B17: binding was characterised by a dissociation constant (Kd) of 13 ± 4 nM.
The same measure for B18: 9.1 ± 1.6 nM; for B19: 13.2 ± 2.3 nM.
Consider B20, for which the Kd was determined as 60 ± 24 nM.
The molecule B21 showed a Kd of 14 ± 5 nM.
The same measure for B22: 5.5 ± 0.6 nM; for B23: 10.4 ± 1.8 nM.
Molecule B24 displayed a dissociation constant (Kd) of 47 ± 20 nM.
The molecule B25 yielded a Kd of 1.16 ± 0.21 nM.
Molecule B26 had a Kd of 16.8 ± 2.8 nM.
B27: the Kd is 16 ± 5 nM.

The values are drawn from publication PMC10786891, “Massively parallel profiling of RNA-targeting CRISPR-Cas13d”.
